Laboratory results reported in patent publication US20080220049A1 (published 2008).
Substitutions are numbered along the chain they refer to.

B1: E2 (designed binder)
chain: EVVAATPTSLLISWRHPHFPTRYYRITYGETGGNSPVQEFTVPLQPPTATISGLKPGVDYTITGYAVTDGPNDRLLNIPISINYRT
notes: 10Fn3 variant, residues 1-8 deleted
B2: 2′Del F6 PR4 (designed binder)
chain: B1 chain with D69L, P71W, R74H, L75E, N77Y
B3: 3′E10 PR4 (designed binder)
chain: B1 chain with D69A, P71H, N72K, R74Q, L75E, N77L, I78T
B4: F5 (designed binder)
chain: B1 chain with K55R, D69V, G70E, P71R, N72D, D73G, L75E
notes: Del 1-8; assay tags not included
B5: F6 (designed binder)
chain: B1 chain with D69V, G70E, P71Q, D73G, L75V, N77M, I78T, I82T
notes: Del 1-8; assay tags not included; Framework 4 printed as ISTNYRT
B6: D9 (designed binder)
chain: B1 chain with K55R, D69E, G70E, P71R, D73G, L75V, N77F, I78T
notes: as for B4
B7: wild type fibronectin-based scaffold protein (tenth type III domain of human fibronectin) (other)
chain: VSDVPRDLEVVAATPTSLLISWDAPAVTVRYYRITYGETGGNSPVQEFTVPGSKSTATISGLKPGVDYTITGYAVTGRGDSPASSKPISINYRT
notes: E. coli produced with His6 tag; also called WT; 10Fn3

Key:
[1] = biological target: T1, mouse vascular endothelial growth factor receptor-2 Fc chimera (Flk-1-Fc) (mouse, UniProt P35918 20-762); test: radioactive equilibrium binding assay, % of input at 1 nM Flk-1-Fc
T1 construct: Purchased from R&D Systems; also called mouse VEGF-R2; not shown: Fc portion of the purchased chimera is not described
T1 sequence (P35918 20-762, change not shown): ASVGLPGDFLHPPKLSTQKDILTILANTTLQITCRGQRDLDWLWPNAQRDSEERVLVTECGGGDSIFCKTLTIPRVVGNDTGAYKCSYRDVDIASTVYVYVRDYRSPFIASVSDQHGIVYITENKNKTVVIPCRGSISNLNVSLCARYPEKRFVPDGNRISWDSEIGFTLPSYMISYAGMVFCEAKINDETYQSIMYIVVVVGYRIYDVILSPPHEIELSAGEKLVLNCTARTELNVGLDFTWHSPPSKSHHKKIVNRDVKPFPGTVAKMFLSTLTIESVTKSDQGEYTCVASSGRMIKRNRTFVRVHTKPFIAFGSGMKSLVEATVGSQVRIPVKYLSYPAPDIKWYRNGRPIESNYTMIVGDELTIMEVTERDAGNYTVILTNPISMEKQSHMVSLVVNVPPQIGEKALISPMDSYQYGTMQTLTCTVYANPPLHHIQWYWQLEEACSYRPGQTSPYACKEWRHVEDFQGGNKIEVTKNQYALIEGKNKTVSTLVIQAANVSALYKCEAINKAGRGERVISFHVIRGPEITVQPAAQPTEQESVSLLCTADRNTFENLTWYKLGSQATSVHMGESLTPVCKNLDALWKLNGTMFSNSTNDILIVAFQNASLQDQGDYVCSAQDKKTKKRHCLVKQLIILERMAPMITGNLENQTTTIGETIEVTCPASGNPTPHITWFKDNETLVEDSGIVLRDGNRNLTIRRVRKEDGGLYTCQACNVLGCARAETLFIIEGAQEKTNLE

[2] = biological target: T2, human vascular endothelial growth factor receptor-2 Fc chimera (KDR-Fc) (human, UniProt P35968 20-764); test: radioactive equilibrium binding, 1 nM KDR-Fc
T2 construct: range 1-764; bought from R&D Systems; stated range 1-764 counts from the first residue of the precursor; also called human VEGF-R2-Fc; not shown: human IgG1 Fc
Experimental: (§1) To prepare ³⁵S-labeled binding proteins for analysis, mRNA was prepared as described above for RNA-protein fusion production but the linker ligation step was omitted. The mRNA was expressed using rabbit reticulocyte lysate translation kit (Ambion) in the presence of ³⁵S-labeled Met at 30° C. for 1 hour. Expressed protein was purified on M2-agarose Flag beads (Sigma) as described above. This procedure produced the encoded protein without the nucleic acid tail. In a direct binding assay, VEGF-R2-Fc fusions in concentrations ranging from 0 to 200 nM were added to a constant concentration of the purified protein (0.2 or 0.5 nM) and incubated at 30° C. for 1 hour in buffer B. The receptor-binder complexes were captured using Protein A magnetic beads for another 10 minutes at room temperature using a Kingfisher™. The beads were washed with six reaction volumes of buffer B. The protein was eluted from the beads with 100 μL of 0.1 M KOH. 50 μL of the reaction mixture and elution were dried onto a LumaPlate-96 (Packard) and the amount of ³⁵S on the plate was measured using a TopCount NXT instrument (Packard). The amount of fibronectin-based scaffold protein bound to the target was estimated as a percent of radioactivity eluted from Protein A magnetic beads compare to radioactivity in the reaction mixture. Nonspecific binding of fibronectin-based scaffold proteins to the beads was determined by measuring binding in the absence of KDR-Fc and represented less than 1-2% of the input. Specific binding was obtained through subtraction of nonspecific binding from total binding. Data was analyzed using the GraphPad Prizm software (GraphPad Software, Inc, San Diego, Calif.), fitted using a one site, non-linear binding equation.
T2 sequence (P35968 20-764 limits assumed, change not shown, form in doubt): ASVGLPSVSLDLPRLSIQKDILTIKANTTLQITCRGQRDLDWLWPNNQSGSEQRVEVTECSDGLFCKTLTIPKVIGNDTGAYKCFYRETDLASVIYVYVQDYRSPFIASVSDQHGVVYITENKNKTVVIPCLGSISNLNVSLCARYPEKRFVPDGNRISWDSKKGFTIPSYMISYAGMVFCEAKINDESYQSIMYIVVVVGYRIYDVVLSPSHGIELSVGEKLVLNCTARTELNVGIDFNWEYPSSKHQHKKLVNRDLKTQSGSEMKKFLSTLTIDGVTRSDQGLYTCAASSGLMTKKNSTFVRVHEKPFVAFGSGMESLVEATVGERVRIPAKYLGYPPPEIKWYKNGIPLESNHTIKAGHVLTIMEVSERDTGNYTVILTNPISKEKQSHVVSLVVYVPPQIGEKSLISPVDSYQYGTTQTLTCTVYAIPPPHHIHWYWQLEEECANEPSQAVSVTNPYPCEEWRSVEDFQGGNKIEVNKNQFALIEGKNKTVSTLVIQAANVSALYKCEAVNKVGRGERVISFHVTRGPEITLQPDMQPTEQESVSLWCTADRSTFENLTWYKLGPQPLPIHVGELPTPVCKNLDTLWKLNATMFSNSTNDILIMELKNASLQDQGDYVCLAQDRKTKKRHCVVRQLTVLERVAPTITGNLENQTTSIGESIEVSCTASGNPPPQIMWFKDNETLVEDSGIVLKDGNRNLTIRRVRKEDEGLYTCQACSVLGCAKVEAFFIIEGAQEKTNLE

[3] = biological target: T3, mouse vascular endothelial growth factor receptor-2 Fc chimera (Flk-1-Fc) (mouse, UniProt P35918 20-762); test: radioactive equilibrium binding, 1 nM Flk-1-Fc
T3 construct: Bought from R&D Systems; also called mouse VEGFR-2; Fc part of the bought chimera not given
Experimental: as §1
T3 sequence (P35918 20-762, change not shown): as the sequence (P35918 20-762, change not shown) above

[4] = biological target: T4, human vascular endothelial growth factor receptor-2 Fc chimera (KDR-Fc) (human, UniProt P35968 20-764); test: radioactive equilibrium binding, 1 nM KDR-Fc
T4 construct: range 1-764; Bought from R&D Systems; limits 1-764 are stated for the selection target; also called human VEGFR-2; not shown: human IgG1 Fc
Experimental: as §1
T4 sequence (P35968 20-764 limits assumed, change not shown, form in doubt): as the sequence (P35968 20-764 limits assumed, change not shown, form in doubt) above

[5] = biological target: T5, full-length human KDR on cells (human, UniProt P35968 20-1356); test: flow cytometry on CHO KDR cells
T5 construct: whole, on cells; also called CHO KDR; CHO-KDR
Experimental: Binding of fibronectin-based scaffold protein to cell-surface KDR and Flk-1 was analyzed simultaneously on VEGF-R2-expressing and control cells by flow cytometry. CHO-pcDNA3 cells (control) were released from their dishes with trypsin-EDTA, washed in Dulbecco's PBS without calcium and magnesium (D-PBS⁻; Invitrogen), and stained for 30 minutes at 37° C. with 1.5 μM CMTMR (5-(and-6)-(((4-chloromethyl)benzoyl)amino)-tetramethylrhodamine) (Molecular Probes). The cells were washed in D-PBS⁻ and incubated for a further 30 minutes at 37° C., and then resuspended in blocking buffer (D-PBS⁻/10% fetal bovine serum) on ice. CHO-KDR or CHO-Flk cells were treated identically except that CMTMR was omitted. […] For cells treated with an anti-KDR mouse monoclonal antibody (Accurate Chemical, Westbury, N.Y.) or an anti-flk-1 goat polyclonal antibody (R&D Systems), the anti-His₆ step was omitted, and antibody binding was detected with the species-appropriate Alexa Fluor 488 conjugated secondary antibody (Molecular Probes). Following staining, cells were resuspended in 200 μl/well D-PBS⁻/1% FBS/1 μg/ml 7-aminoactinomycin D (7-AAD; Molecular Probes) and analyzed by flow cytometry on a FACSCalibur (Becton Dickinson, San Jose, Calif.) equipped with a […] laser. […]

T5 sequence (P35968 20-1356): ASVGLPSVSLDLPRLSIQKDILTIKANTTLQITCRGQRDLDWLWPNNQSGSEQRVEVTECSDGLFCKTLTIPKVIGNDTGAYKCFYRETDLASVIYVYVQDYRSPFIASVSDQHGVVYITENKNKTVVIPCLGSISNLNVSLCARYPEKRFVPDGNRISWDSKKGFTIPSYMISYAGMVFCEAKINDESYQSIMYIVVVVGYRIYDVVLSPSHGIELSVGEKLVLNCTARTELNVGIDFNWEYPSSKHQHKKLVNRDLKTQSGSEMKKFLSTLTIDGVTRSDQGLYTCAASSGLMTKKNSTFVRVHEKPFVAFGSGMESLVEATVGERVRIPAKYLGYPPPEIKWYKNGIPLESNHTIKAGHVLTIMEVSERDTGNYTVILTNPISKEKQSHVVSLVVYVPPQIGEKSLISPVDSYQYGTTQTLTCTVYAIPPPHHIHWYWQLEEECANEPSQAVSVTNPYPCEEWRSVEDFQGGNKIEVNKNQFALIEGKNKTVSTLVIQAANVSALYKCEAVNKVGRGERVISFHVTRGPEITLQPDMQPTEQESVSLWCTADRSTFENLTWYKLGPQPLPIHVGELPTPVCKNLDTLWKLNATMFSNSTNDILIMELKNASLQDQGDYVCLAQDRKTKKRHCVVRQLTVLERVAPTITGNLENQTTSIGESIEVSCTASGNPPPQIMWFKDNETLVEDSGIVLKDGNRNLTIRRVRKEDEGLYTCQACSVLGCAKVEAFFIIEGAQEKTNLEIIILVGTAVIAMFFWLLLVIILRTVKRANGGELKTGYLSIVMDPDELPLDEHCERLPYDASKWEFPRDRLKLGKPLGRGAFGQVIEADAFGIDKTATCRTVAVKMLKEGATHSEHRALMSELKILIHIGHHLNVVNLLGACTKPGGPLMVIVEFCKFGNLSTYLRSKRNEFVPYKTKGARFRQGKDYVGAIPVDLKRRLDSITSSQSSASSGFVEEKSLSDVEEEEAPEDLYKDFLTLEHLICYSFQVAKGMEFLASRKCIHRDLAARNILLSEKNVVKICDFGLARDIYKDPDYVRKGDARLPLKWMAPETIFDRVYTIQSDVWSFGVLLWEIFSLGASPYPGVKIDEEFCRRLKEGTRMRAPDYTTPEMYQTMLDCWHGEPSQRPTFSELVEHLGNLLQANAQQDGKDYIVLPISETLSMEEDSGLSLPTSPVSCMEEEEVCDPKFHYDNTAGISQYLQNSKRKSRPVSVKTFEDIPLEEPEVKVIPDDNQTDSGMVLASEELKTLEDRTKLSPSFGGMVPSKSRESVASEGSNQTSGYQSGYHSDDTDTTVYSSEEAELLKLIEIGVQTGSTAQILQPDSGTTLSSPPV

Binder	Binding to 1 nM Flk-1, % [3] [%]	Binding to 1 nM KDR, % [4] [%]	further results
B1	–	–	Binding to 1 nM FLK, % [1]: 10%
B2	–	–	Binding to 1 nM KDR, % [2]: 22%
B3	–	–	Binding to 1 nM KDR, % [2]: 21%
B4	8	12	–
B5	2	37	–
B6	40	31	–
B7	–	–	binding result [5]: no binding
